{"source": "patent US10202593B2", "about": "“Evolved sortases and uses thereof” (President and Fellows of Harvard College, priority 2013, dated 2019)", "molecules": {"B1": {"name": "eSrtA (protein)", "chain": "QAKPQIPKDKSKVAGYIEIPDADIKEPVYPGPATREQLNRGVSFAEENESLDDQNISIAGHTFIDRPNYQFTNLKAAKKGSMVYFKVGNETRKYKMTSIRNVKPTAVEVLDEQKGKDKQLTLITCDDYNEETGVWETRKIFVATEVK"}, "B2": {"name": "eSrtA(4S-9): P94R, N98D, S102C, A104V, A118T, F122A, K134R, F144L, D160N, D165A, I182V, E189F, K190E, K196T (protein)", "chain": "B1 chain with N39D, S43C, A45V, A59T, F63A, K75R, F85L, I123V, E130F"}, "B3": {"name": "eSrtA(2A-9): P94R, S102C, A104H, E105D, K138P, K152I, N160K, K162H, T164N, D165A, K173E, I182V, K190E, T196S (protein)", "chain": "QAKPQIPKDKSKVAGYIEIPDADIKEPVYPGPATREQLNRGVCFHDENESLDDQNISIAGHTFIDRPNYQFTNLKAAKPGSMVYFKVGNETRIYKMTSIRKVHPNAVEVLDEQEGKDKQLTLVTCDDYNEETGVWESRKIFVATEVK"}}, "key": {"[1]": {"target": "T1, LPETG (Abz-LPETGK(Dnp)-CONH2) (Staphylococcus aureus, UniProt Q2FV99, D160N/D165A/K190E/K196T/P94R)", "T1 construct": "All expressed sortases lack the N-terminal 59 amino acids; inferred from Ni-NTA purification; made in house; host or cells: E. coli BL21 (DE3), pET29", "T1 sequence (Q2FV99 60-206 P94R/D160N/D165A/G167E/K190E/K196T)": "B1 chain", "experiment": "In vitro sortase kinetics HPLC assay, LPETG substrate", "assay_type": "biochemical", "conditions": "cognate LPETG substrate", "outline": "(§1)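 Abz-LXEXGK(Dnp) peptides in 300 mM Tris pH 7.5, 150 mM NaCl, 5 mM CaCl2, 5% DMSO, GGG; 22.5° C., acid-quenched, converted fraction by reverse-phase HPLC peak areas. kcat and Km from eight substrate concentrations fit to Michaelis-Menten; KH at 1 mM substrate over eight GGG levels.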"}, "[2]": {"test_system": "LPETG (Abz-LPETGK(Dnp)-CONH2)", "conditions": "cited from earlier work"}, "[3]": {"target": "T2, LAETG (Abz-LAETGK(Dnp)-CONH2) (Staphylococcus aureus, UniProt Q2FV99, D160N/D165A/K190E/K196T/P94R)", "T2 construct": "All expressed sortases lack the N-terminal 59 amino acids; inferred from Ni-NTA purification; made in house; host or cells: E. coli BL21 (DE3), pET29", "T2 sequence (Q2FV99 60-206 P94R/D160N/D165A/G167E/K190E/K196T)": "B1 chain", "experiment": "In vitro sortase kinetics HPLC assay, LAETG substrate", "assay_type": "biochemical", "conditions": "candidate LAETG target", "outline": "as §1"}, "Abz-LXEXGK(Dnp) peptides": {"test_system": "Abz-LXEXGK(Dnp) peptides", "experiment": "Enzyme specificity assay (percent substrate conversion by HPLC)", "assay_type": "biochemical", "procedure": "(A, D) For each of eSrtA, eSrtA(2A-9), and eSrtA(4S-9), we incubated an activity matched quantity of enzyme (47.5 nM eSrtA, 450 nM eSrtA(2A-9), 115 nM eSrtA(4S-9)) with 10 μM Abz-LXEXGK(Dnp) (SEQ ID NO: 33) and 100 mM Gly-Gly-Gly peptide as listed for 15 minutes. Percent substrate conversion was monitored by reverse phase HPLC analysis and UV absorbance at 355 nm. […] LPEXG: SEQ ID NO: 34.\nAssays to determine eSrtA, eSrtA(2A-9) and eSrtA(4S-9) specificity were performed by preparing 10 μM stocks of Abz-LXEXGK(Dnp) (SEQ ID NO: 75) peptides in 300 mM Tris pH 7.5, 150 mM NaCl, 5 mM CaCl2, 5% v/v DMSO, and 100 mM Gly-Gly-Gly-COOH (GGG). Reactions were performed by adding eSrtA(2A-9) to a final concentration of 450 nM, eSrtA(4S-9) to a final concentration of 115 nM or eSrtA to a final concentration of 47.5 nM and a final volume of 100 μL, then incubating at 22.5° C. for 15 minutes. Reactions were quenched by the addition of 0.2 volumes of 5 M HCl, then were injected onto an analytical reverse-phase Eclipse XDB-C18 HPLC column (4.6×150 mm, 5 μm, Agilent Technologies) and chromatographed using a gradient of 10 to 65% acetonitrile with 0.1% TFA in 0.1% aqueous TFA over 13 minutes. Retention times under these conditions for the Abz-LPETGK(Dnp)-CONH2 (SEQ ID NO: 19) substrate, the released GKDnp peptide, and the Abz-LPETGGG-COOH (SEQ ID NO: 20) product were 12.8, 10.4, and 9.1 min, respectively, while the remaining Abz-LXEXGK(Dnp)-CONH2 (SEQ ID NO: 74) substrates varied in retention time between 9 and 13 minutes. To calculate the percent conversion, the ratio of the integrated areas of the GK(Dnp)-CONH2 and Abz-LPETGK(Dnp)-CONH2 (SEQ ID NO: 19) peptide Abs355 peaks were compared directly. Subsequent determination of kcat/Km and KH were performed as described for in vitro SrtA characterization."}}, "note": "Substitutions are numbered along the chain they refer to. Numbers in names are those of the source."}
{"molecule": "B1", "values": [{"measurement": "Km", "setting": "[1]", "value": 200, "unit": "µM"}, {"measurement": "higher catalytic activity relative to wild-type SrtA", "setting": "[2]", "value": "approximately 140 fold"}, {"measurement": "Km", "setting": "[3]", "value": 6.1, "unit": "mM"}]}
{"molecule": "B2", "values": [{"measurement": "difference in transpeptidation of LPESG over LPETG", "setting": "Abz-LXEXGK(Dnp) peptides; FIG. 20A, 10 μM peptide, 100 mM GGG, 15 minutes", "value": "approximately 40 fold"}, {"measurement": "activity on the substrates LPEAG, LPECG and LPESG", "setting": "Abz-LXEXGK(Dnp) peptides; position 4 substrate profile, FIGS. 20A-B", "value": "significant activity"}]}
{"molecule": "B3", "values": [{"measurement": "reduced activity on the next most active substrates, LSETG and LRETG, versus LAETG", "setting": "Abz-LXEXGK(Dnp) peptides; position 2 substrate profile, FIG. 20E", "value": "> 20", "unit": "fold"}]}
